Data: patent publication US20090148434A1 (published 2009)

Legend:
human p55 TNF receptor = target: T1, human p55 TNF receptor (human, UniProt P19438 30-211, limits assumed)
T1 construct: also called TNF Receptor 1; TNFR1
T1 sequence (looked up): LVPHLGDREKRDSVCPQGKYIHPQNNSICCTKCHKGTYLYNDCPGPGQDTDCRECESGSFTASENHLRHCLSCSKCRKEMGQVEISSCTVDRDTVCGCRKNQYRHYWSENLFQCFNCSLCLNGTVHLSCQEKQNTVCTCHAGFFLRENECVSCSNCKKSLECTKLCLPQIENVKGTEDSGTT

human serum albumin = target: T2, human serum albumin (human, UniProt P02768 25-609); assay: not stated; IC50/Kd, called Kd in paragraph 434
T2 construct: also called HSA

Row | Binder | Kd (human p55 TNF receptor) | Kd (human serum albumin)
1 | TAR2h10-55 (other, expressed from pDOM5; also called TAR2h10-55 dAb) VH: STEVQLLESGGGLVQPGGSLRLSCAASGFPFEWYWMGWVRQAPGKGLEWVSAISGSGDSTYYADSVKGRFTISRDNSKNTLYQQMNSLRAEDAAVYYCAKVKLGGGPNFGYRGQGTLVTVSSAAAEQKLISEEDLN | 10 to 15 nM | 
2 | TAR3h-23 (other, anti-HSA VH dAb expressed from pDOM5) VH: STEVQLLESGGGLVQPGGSLRLSCAASGFTFYDYNMSWVRQAPGKGLEWVSTITHTGGVTYYADSVKGRFTISRDNSKNTLYLQMNSLRAEDTAVYYCAKQNPSYQFDYWGQGTLVTVSSAAAEQKLISEEDLN |  | 800 nM

Continued by falling Kd (human serum albumin), values first:

Row | Kd (human p55 TNF receptor) | Kd (human serum albumin) | Binder
3 |  | 200 nM | TAR3h-26 (other, anti-HSA VH dAb expressed from pDOM5) VH: STEVQLLESGGGLVQPGGSLRLSCTASGFTFDEYNMSWVRQAPGKGLEWVSTILPHGDRTYYADSVKGRFTISRDNSKNTLYLQMNSLRAEDTAVYYCAKQDPLYRFDYWGQGTLVTVSSAAAEQKLISEEDLN
4 |  | 50 nM | TAR3h-22 (other, anti-HSA VH dAb expressed from pDOM5) VH: STEVQLLESGGGLVQPGGSLRLSCAASGFTFSKYWMSWVRQAPGKGLEWVSSIDFMGPHTYYADSVKGRFTISRDNSKNTLYLQMNSLRAEDTAVYYCAKGRTSMLPMKGKFDYWGQGTLVTVSSAAAEQKLISEEDLN
